From patent publication US20240294638A1

Key:
[1] = molecular target: human NKG2A S170L / human CD94 heterodimer on CHO-S cells (human) (UniProt Q13241); test: flow cytometry, CHO-S cells transiently transfected with NKG2A variant and CD94, AF647 goat anti-human IgG secondary (MFI) [cont.), panel monalizumab analogue (IgG4]
[2] = molecular target: human NKG2A M189I / human CD94 heterodimer on CHO-S cells (human) (UniProt Q13241); test: as above
I168S (Homo sapiens) = test: as above
[3] = molecular target: human NKG2A S167A+I168S+S170L / human CD94 heterodimer on CHO-S cells (human) (UniProt Q13241); test: as above
[4] = molecular target: human NKG2A and human CD94 expressed on transiently transfected CHO-S cells (human) (UniProt Q13241); test: as above
[5] = molecular target: cynomolgus NKG2A and cynomolgus CD94 expressed on transiently transfected CHO-S cells (cynomolgus) (UniProt Q68VD2); test: blocking of PE-conjugated HLA-E pentamer binding to transiently transfected CHO-S cells, flow cytometry (percentage binding) [panel B cNKG2A]
[6] = molecular target: human NKG2A and human CD94 expressed on transiently transfected CHO-S cells (human) (UniProt Q13241); test: blocking of PE-conjugated HLA-E pentamer binding to transiently transfected CHO-S cells, flow cytometry (percentage binding) [panel A hNKG2A]
[7] = molecular target: NKG2A on primary human NK cells (human) (UniProt P26715); test: cell-based or functional assay
[8] = molecular target: cynomolgus NKG2C and cynomolgus CD94 expressed on transiently transfected CHO-S cells (cynomolgus); test: blocking of PE-conjugated HLA-E pentamer binding to transiently transfected CHO-S cells, flow cytometry (percentage binding) [cont.), panel D cNKG2C]
[9] = molecular target: cynomolgus NKG2C and cynomolgus CD94 expressed on transiently transfected CHO-S cells (cynomolgus); test: flow cytometry, transiently transfected CHO-S cells, AF647 goat anti-human IgG secondary (MFI) [cont.), panel monalizumab analogue (IgG1-LALA]
[10] = molecular target: cynomolgus NKG2A and cynomolgus CD94 expressed on transiently transfected CHO-S cells (cynomolgus) (UniProt Q68VD2); test: as above
[11] = molecular target: human NKG2A and human CD94 expressed on transiently transfected CHO-S cells (human) (UniProt Q13241); test: as above

human NKG2A and human CD94 expressed on transiently transfected CHO-S cells (human), sequence (chain, as listed by the source, chain 1 of 2): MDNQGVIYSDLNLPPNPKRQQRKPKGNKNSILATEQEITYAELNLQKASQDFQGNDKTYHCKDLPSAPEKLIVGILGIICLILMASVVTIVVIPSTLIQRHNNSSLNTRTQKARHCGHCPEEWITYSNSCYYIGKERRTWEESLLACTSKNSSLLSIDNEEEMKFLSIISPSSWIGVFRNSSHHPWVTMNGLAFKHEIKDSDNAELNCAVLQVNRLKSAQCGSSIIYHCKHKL
human NKG2A and human CD94 expressed on transiently transfected CHO-S cells (human), sequence (Q13241 whole entry, chain 2 of 2): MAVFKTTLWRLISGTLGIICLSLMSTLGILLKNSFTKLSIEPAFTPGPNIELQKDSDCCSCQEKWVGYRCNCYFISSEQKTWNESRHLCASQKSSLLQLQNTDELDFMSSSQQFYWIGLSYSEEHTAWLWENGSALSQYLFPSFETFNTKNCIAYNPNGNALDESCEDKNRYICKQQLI
human NKG2A S170L / human CD94 heterodimer on CHO-S cells (human), sequence (chain, as listed by the source S170L S170L, chain 1 of 2): as the sequence (chain, as listed by the source, chain 1 of 2) above, with S170L counted along it
human NKG2A S170L / human CD94 heterodimer on CHO-S cells (human), sequence (Q13241 whole entry, chain 2 of 2): as the sequence (Q13241 whole entry, chain 2 of 2) above
human NKG2A M189I / human CD94 heterodimer on CHO-S cells (human), sequence (chain, as listed by the source M189I M189I, chain 1 of 2): as the sequence (chain, as listed by the source, chain 1 of 2) above, with M189I counted along it
human NKG2A M189I / human CD94 heterodimer on CHO-S cells (human), sequence (Q13241 whole entry, chain 2 of 2): as the sequence (Q13241 whole entry, chain 2 of 2) above
I168S (Homo sapiens), sequence (P26715 whole entry I168S): as the sequence (chain, as listed by the source, chain 1 of 2) above, with I168S counted along it
NKG2A on primary human NK cells (human), sequence (P26715 whole entry): as the sequence (chain, as listed by the source, chain 1 of 2) above
human NKG2A S167A+I168S+S170L / human CD94 heterodimer on CHO-S cells (human), sequence (chain, as listed by the source S167A I168S S170L S167A I168S S170L, chain 1 of 2): as the sequence (chain, as listed by the source, chain 1 of 2) above, with S167A, I168S, S170L counted along it
human NKG2A S167A+I168S+S170L / human CD94 heterodimer on CHO-S cells (human), sequence (Q13241 whole entry, chain 2 of 2): as the sequence (Q13241 whole entry, chain 2 of 2) above

EC50 (read off the curve) [1] [ng/mL]	EC50 (read off the curve) [2] [ng/mL]	EC50 (read off the curve) (I168S (Homo sapiens)) [ng/mL]	EC50 (read off the curve) [3] [ng/mL]	EC50 (read off the curve) [4] [ng/mL]	IC50 (read off the curve) [5] [ng/mL]	IC50 (read off the curve) [6] [ng/mL]	IC50 (read off the curve) [8] [ng/mL]	EC50 (read off the curve) [9] [ng/mL]	EC50 (read off the curve) [10] [ng/mL]	EC50 (read off the curve) [11] [ng/mL]	Substance	EC50 (ug/mL) of induced NK cell cytotoxicity, median (n = 6) [7] [µg/mL]
2	2	2	3	2	500	200	800	–	–	–	Monalizumab Analogue (IgG4-S228P) (antibody)	0.89
–	–	–	–	–	–	–	–	20	10	8	monalizumab analogue (IgG1-LALA) (antibody)	–
